Data from US20230127047A1, “SELECTIVE GIP RECEPTOR AGONISTS COMPRISING A CHELATING MOIETY FOR IMAGING AND THERAPY PURPOSES” (ANTAROS MEDICAL AB, priority 2020, published 2023).
Like-named read-outs stand apart in the source and are kept apart here. Where a SMILES comes first, the peptide text is derived from it. Where no end group is shown, it is not given here. [ ]: non-standard residue; d: D form. The star is where a group is joined. DO3A(CH2CH2SO2CH2CH2) = O=C(O)CN1CCN(CCS(=O)(=O)CC*)CCN(CC(=O)O)CCN(CC(=O)O)CC1; DOTA = O=C(O)CN1CCN(CC(=O)O)CCN(CC(=O)*)CCN(CC(=O)O)CC1; Aib = CC(C)(N)C(=O)O

Experiments:
[1] = target: T1, glucagon receptor (hGCGR) (Homo sapiens, UniProt P47871); experiment: cAMP response (HTRF) in PSC-HEK-293 cells expressing human glucagon receptor; format: cell-based
T1 construct: expressed in transfected cells
Description: (§1) Each vial contained 1.8 ml cells. The vials were slowly frozen to −80° C. in isopropanol, and then transferred in liquid nitrogen for storage.
(§2) Prior to their use, frozen cells were thawed quickly at 37° C. and washed (5 min at 900 rpm) with 20 ml cell buffer (lx HBSS; 20 mM HEPES, with 0.1% BSA).
(§3) For measurement of cAMP generation, 5 μl cells (final 5000 cells/well) and 5 μl of test compound were added to a 384-well plate, followed by incubation for 30 min at room temperature.
(§4) The cAMP generated was determined using a kit from Cisbio Corp. based on HTRF (Homogenous Time Resolved Fluorescence). The cAMP assay was performed according to manufacturer's instructions (Cisbio).
(§5) cAMP content of cells was determined using a kit from Cisbio Corp. (cat. no. 62AM4PEC) based on HTRF (Homogenous Time Resolved Fluorescence). […] Medium was then removed and cells washed with PBS lacking calcium and magnesium, followed by proteinase treatment with accutase (Sigma-Aldrich cat. no. A6964). Detached cells were washed and resuspended in assay buffer (1×HBSS; 20 mM HEPES, 0.1% BSA, 2 mM IBMX) and cellular density determined. They were then diluted to 400000 cells/ml and 25 μl-aliquots dispensed into the wells of 96-well plates. For measurement, 25 μl of test compound in assay buffer was added to the wells, followed by incubation for 30 minutes at room temperature.

[2] = target: human GLP-1 receptor (hGLP-1R) (Homo sapiens, UniProt P43220); experiment: cAMP response (HTRF) in PSC-HEK-293 cells expressing human GLP-1 receptor; format: cell-based
Description: as §1, §2, §3, §4, §5

[3] = target: T2, human GIP receptor (hGIPR) (Homo sapiens, UniProt P48546); experiment: cAMP response (HTRF) in PSC-HEK-293 cells expressing human GIP receptor; format: cell-based; conditions: from EC50 values of Table 5
T2 sequence (P48546 22-466): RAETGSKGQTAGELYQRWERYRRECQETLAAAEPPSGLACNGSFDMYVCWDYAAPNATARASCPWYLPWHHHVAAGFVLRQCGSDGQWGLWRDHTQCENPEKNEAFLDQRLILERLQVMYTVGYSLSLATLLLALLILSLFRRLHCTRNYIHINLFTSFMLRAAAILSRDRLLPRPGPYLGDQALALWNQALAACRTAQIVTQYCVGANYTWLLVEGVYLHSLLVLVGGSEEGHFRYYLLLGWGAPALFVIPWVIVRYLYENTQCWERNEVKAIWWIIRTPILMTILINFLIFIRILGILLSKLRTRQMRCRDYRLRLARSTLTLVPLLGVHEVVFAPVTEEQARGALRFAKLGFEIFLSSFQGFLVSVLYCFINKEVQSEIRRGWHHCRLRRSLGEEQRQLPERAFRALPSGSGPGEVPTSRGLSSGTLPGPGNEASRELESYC
Description: as §1, §2, §3, §4, §5

[4] = Plasma stability testing (radio-HPLC) in NHP plasma; format: in vitro ADME, cynomolgus monkey; conditions: for Intact peptide (%): NHP plasma, 37° C.
[5] = target: T3, human GIP receptor (human, UniProt P48546 22-466); experiment: cell-based or functional assay
T3 sequence (looked up): T2 sequence (P48546 22-466)

[6] = target: human glucagon receptor (human, UniProt P47871 26-477); experiment: cell-based or functional assay
[7] = target: human GLP-1 receptor (human, UniProt P43220 24-463); experiment: cell-based or functional assay
[8] = target: T3, human GIP receptor; experiment: [125I]GIP displacement IC50, reference native GIP (SEQ ID NO: 1)
[9] = target: T3, human GIP receptor; experiment: [125I]GIP displacement IC50, reference GIP(1-30) (SEQ ID NO: 2)
[10] = target: T3, human GIP receptor; experiment: [125I]GIP displacement, SPA beads with hGIPR HEK-293 membranes

Sequence of human glucagon receptor (P47871 26-477): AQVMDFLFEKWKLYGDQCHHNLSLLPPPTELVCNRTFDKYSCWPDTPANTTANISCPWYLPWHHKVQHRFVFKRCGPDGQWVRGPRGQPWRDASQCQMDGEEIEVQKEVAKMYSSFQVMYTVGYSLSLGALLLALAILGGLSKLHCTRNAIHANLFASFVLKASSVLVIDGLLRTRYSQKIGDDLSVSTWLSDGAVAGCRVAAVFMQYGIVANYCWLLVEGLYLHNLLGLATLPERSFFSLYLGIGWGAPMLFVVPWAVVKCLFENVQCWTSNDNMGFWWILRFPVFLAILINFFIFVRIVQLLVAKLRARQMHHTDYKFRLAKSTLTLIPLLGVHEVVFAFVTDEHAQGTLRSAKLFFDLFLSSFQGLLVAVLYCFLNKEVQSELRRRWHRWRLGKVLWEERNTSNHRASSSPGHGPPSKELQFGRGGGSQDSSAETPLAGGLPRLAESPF
T1 sequence (P47871 26-477): as above
Sequence of human GLP-1 receptor (hGLP-1R) (P43220 24-463): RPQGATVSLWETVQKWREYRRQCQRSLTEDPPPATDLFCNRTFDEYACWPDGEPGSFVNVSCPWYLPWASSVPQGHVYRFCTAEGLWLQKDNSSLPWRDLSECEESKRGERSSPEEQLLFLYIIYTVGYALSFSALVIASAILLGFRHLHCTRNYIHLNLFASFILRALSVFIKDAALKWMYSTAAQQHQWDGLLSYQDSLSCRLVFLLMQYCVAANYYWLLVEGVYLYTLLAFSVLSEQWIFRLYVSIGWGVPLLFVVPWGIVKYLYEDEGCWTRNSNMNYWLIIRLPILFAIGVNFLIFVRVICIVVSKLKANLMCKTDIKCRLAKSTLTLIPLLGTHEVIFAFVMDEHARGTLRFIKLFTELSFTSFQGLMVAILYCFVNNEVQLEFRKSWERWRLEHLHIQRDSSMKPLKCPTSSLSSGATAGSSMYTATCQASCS

CC[C@H](C)[C@H](NC(=O)[C@H](CO)NC(=O)[C@H](Cc1ccc(O)cc1)NC(=O)[C@H](CC(=O)O)NC(=O)[C@H](CO)NC(=O)[C@@H](NC(=O)[C@H](Cc1ccccc1)NC(=O)[C@@H](NC(=O)CNC(=O)[C@H](CCC(=O)O)NC(=O)[C@H](C)NC(=O)[C@@H](N)Cc1ccc(O)cc1)[C@@H](C)O)[C@@H](C)CC)C(=O)N[C@@H](C)C(=O)N[C@@H](CCSC)C(=O)N[C@@H](CC(=O)O)C(=O)N[C@@H](CCCCN)C(=O)N[C@H](C(=O)N[C@@H](Cc1c[nH]cn1)C(=O)N[C@@H](CCC(N)=O)C(=O)N[C@@H](CCC(N)=O)C(=O)N[C@@H](CC(=O)O)C(=O)N[C@@H](Cc1ccccc1)C(=O)N[C@H](C(=O)N[C@@H](CC(N)=O)C(=O)N[C@@H](Cc1c[nH]c2ccccc12)C(=O)N[C@@H](CC(C)C)C(=O)N[C@@H](CC(C)C)C(=O)N[C@@H](C)C(=O)N[C@@H](CCC(N)=O)C(=O)N[C@@H](CCCCN)C(=O)NCC(=O)N[C@@H](CCCCN)C(=O)N[C@@H](CCCCN)C(=O)N[C@@H](CC(N)=O)C(=O)N[C@@H](CC(=O)O)C(=O)N[C@@H](Cc1c[nH]c2ccccc12)C(=O)N[C@@H](CCCCN)C(=O)N[C@@H](Cc1c[nH]cn1)C(=O)N[C@@H](CC(N)=O)C(=O)N[C@H](C(=O)N[C@H](C(=O)N[C@@H](CCC(N)=O)C(=O)O)[C@@H](C)O)[C@@H](C)CC)C(C)C)[C@@H](C)CC [SEQ ID NO: 1, YAEGTFISDYSIAMDKIHQQDFVNWLLAQKGKKNDWKHNITQ-OH]
EC50 [1]: > 10 nM
EC50 ([1]; read-out: EC50 hGCGR, 384-well format): > 10 nM

CC[C@H](C)[C@H](NC(=O)[C@H](CO)NC(=O)[C@H](Cc1ccc(O)cc1)NC(=O)[C@H](CC(=O)O)NC(=O)[C@H](CO)NC(=O)[C@@H](NC(=O)[C@H](Cc1ccccc1)NC(=O)[C@@H](NC(=O)CNC(=O)[C@H](CCC(=O)O)NC(=O)[C@H](C)NC(=O)[C@@H](N)Cc1ccc(O)cc1)[C@@H](C)O)[C@@H](C)CC)C(=O)N[C@@H](C)C(=O)N[C@@H](CCSC)C(=O)N[C@@H](CC(=O)O)C(=O)N[C@@H](CCCCN)C(=O)N[C@H](C(=O)N[C@@H](Cc1c[nH]cn1)C(=O)N[C@@H](CCC(N)=O)C(=O)N[C@@H](CCC(N)=O)C(=O)N[C@@H](CC(=O)O)C(=O)N[C@@H](Cc1ccccc1)C(=O)N[C@H](C(=O)N[C@@H](CC(N)=O)C(=O)N[C@@H](Cc1c[nH]c2ccccc12)C(=O)N[C@@H](CC(C)C)C(=O)N[C@@H](CC(C)C)C(=O)N[C@@H](C)C(=O)N[C@@H](CCC(N)=O)C(=O)N[C@@H](CCCCN)C(N)=O)C(C)C)[C@@H](C)CC [SEQ ID NO: 2, YAEGTFISDYSIAMDKIHQQDFVNWLLAQK-NH2]
EC50 [2]: > 10 nM
EC50 [1]: > 10 nM

CC[C@H](C)[C@H](NC(=O)[C@H](CO)NC(=O)[C@H](CC(C)C)NC(=O)[C@H](CC(=O)O)NC(=O)[C@H](CO)NC(=O)[C@@H](NC(=O)[C@H](Cc1ccccc1)NC(=O)[C@@H](NC(=O)CNC(=O)[C@H](CCC(=O)O)NC(=O)C(C)(C)NC(=O)[C@@H](N)Cc1ccc(O)cc1)[C@@H](C)O)[C@@H](C)CC)C(=O)N[C@@H](C)C(=O)N[C@@H](CC(C)C)C(=O)N[C@@H](CC(=O)O)C(=O)N[C@@H](CCCNC(=N)N)C(=O)N[C@H](C(=O)N[C@@H](Cc1c[nH]cn1)C(=O)N[C@@H](CCC(N)=O)C(=O)N[C@@H](CCC(=O)O)C(=O)N[C@@H](CCC(=O)O)C(=O)N[C@@H](Cc1ccccc1)C(=O)N[C@H](C(=O)N[C@@H](CCC(N)=O)C(=O)N[C@@H](Cc1c[nH]c2ccccc12)C(=O)N[C@@H](CC(C)C)C(=O)N[C@@H](CC(C)C)C(=O)N[C@@H](C)C(=O)NCC(=O)NCC(=O)N[C@@H](CSCCS(=O)(=O)CCN1CCN(CC(=O)O)CCN(CC(=O)O)CCN(CC(=O)O)CC1)C(N)=O)[C@@H](C)CC)[C@@H](C)CC [SEQ ID NO: 5, Y-Aib-EGTFISDLSIALDRIHQEEFIQWLLAGGC(VS-DO3A)-NH2] (H-Y[Aib]EGTFISDLSIALDRIHQEEFIQWLLAGGC(DO3A(CH2CH2SO2CH2CH2))-NH2; N-terminus assumed)
potency (ability to activate the human GIP receptor) compared to native GIP or GIP(1-30) [3]: lower potency
EC50 [2]: > 10 nM
EC50 [1]: > 10 nM

SEQ ID NOs: 3 (Y[Aib]EGTFISDLSIALDRIHQEEFIEWLLAGGK(DOTA)-NH2)
potency (ability to activate the human GIP receptor) compared to native GIP or GIP(1-30) [3]: lower potency

Y-Aib-EGTFISDLSIALDRIHQEEFIEWLLAGGK(DOTA(Ga))-NH2 (Y[Aib]EGTFISDLSIALDRIHQEEFIEWLLAGGK(DOTA)-NH2; also: Ga (68Ga) complexed in DOTA on Lys31) [SEQ ID NO: 4]
potency (ability to activate the human GIP receptor) compared to native GIP or GIP(1-30) [3]: lower potency
Intact peptide (%) ([4]; 0 min): 99.5%
Intact peptide (%) ([4]; 15 min): 98.65%
Intact peptide (%) ([4]; 45 min): 96.31%
Intact peptide (%) ([4]; 90 min): 92.98%
radioactive signal arising from intact peptide ([4]; plasma from NHP, after 90 minutes incubation): > 92%

hGlucagon (from UniProt P01275 53-81) (ligand)
EC50 hGIP R, cAMP formation (HTRF), 96-well format [5]: > 10000 pM
EC50 hGIP R, cAMP formation (HTRF), 384-well format [5]: > 10000 pM

Y[Aib]EGTFISDLSIALDRIHQEEFIEWLLAGGK(DOTA)-NH2 [SEQ ID NO: 3 (GIP(1-30) analog with K(DOTA) at position 31, unloaded)]
EC50 hGIP R, cAMP formation (HTRF), 96-well format [5]: 1.13 pM
EC50 hGCGR, cAMP formation (HTRF), 96-well format [6]: > 10 nM
EC50 hGLP-1 R, cAMP formation (HTRF), 96-well format [7]: > 10 nM

YAEGTFISDYSIAMDKIHQQDFVNWLLAQK-NH2 (ligand) [GIP(1-30) amide, SEQ ID NO: 2]
EC50 hGCGR, cAMP formation (HTRF), 96-well format [6]: > 10 nM
EC50 hGLP-1 R, cAMP formation (HTRF), 96-well format [7]: > 10 nM

YAEGTFISDYSIAMDKIHQQDFVNWLLAQKGKKNDWKHNITQ-OH (ligand) [GIP (glucose-dependent insulinotropic polypeptide), SEQ ID NO: 1]
EC50 hGCGR, cAMP formation (HTRF), 96-well format [6]: > 10 nM
EC50 hGCGR, cAMP formation (HTRF), 384-well format [6]: > 10 nM

H-Y[Aib]EGTFISDLSIALDRIHQEEFIEWLLAGGK(DOTA)-NH2 (also: Ga3+ complexed in DOTA on Lys31, also called Ga-S02-GIP-T4) [SEQ ID NO: 4 (GIP(1-30) analog with K(DOTA(Ga)) at position 31)]
EC50 hGIP R, cAMP formation (HTRF), 96-well format [5]: 1.09 pM
EC50 hGCGR, cAMP formation (HTRF), 96-well format [6]: > 10 nM
EC50 hGLP-1 R, cAMP formation (HTRF), 96-well format [7]: > 10 nM
fold improvement of binding affinity against native GIP [8]: ~12 fold
fold improvement of binding affinity against GIP(1-30) [9]: ~5 fold
IC50 [10]: 0.25 nM

B1: SEQ ID NO: 5 (GIP(1-30) analog with C(VS-DO3A) at position 31, unloaded) (peptide)
peptide: Y[Aib]EGTFISDLSIALDRIHQEEFIQWLLAGGC(DO3A(CH2CH2SO2CH2CH2))-NH2
notes: Printed: Y-Aib-EGTFISDLSIALDRIHQEEFIQWLLAGGC(VS-DO3A)-NH2
EC50 hGIP R, cAMP formation (HTRF), 384-well format [5]: 0.22 pM
EC50 hGCGR, cAMP formation (HTRF), 384-well format [6]: > 10 nM
EC50 hGLP-1 R, cAMP formation (HTRF), 384-well format [7]: > 10 nM
fold improvement of binding affinity against native GIP [8]: ~12 fold
fold improvement of binding affinity against GIP(1-30) [9]: ~5 fold
IC50 [10]: 0.22 nM
